Laboratory results taken from article PMC10344781 (Nature Biotechnology, 2023).
Changes are numbered by the printed parent chain.

B1: scFv2 displayed on yeast (scFv, V domains shown)
VH: VLLQQSGPELVKPGASVKIPCKASGYTFTDYEMDWVKQSHGKSLEWIGSINPNNGGTMYNQKFKGKATLTVDKSSSAAYMEVRSLTSEDTAVYYCARKPYYGMNAWFAYWGQGTLVTVSA
VL: IQVTQSSSSFSVSLGDRVTITCKASEDIYNRLAWYQQKPGNAPRLLISGATSLETGVPDRFSGSGSRKDYTLIITSLQTEDVATYYCQQYYALPLTFGAGTKLELK
notes: 25-D1.16 scFv (PDB 3CVH) changed at the nine randomised peptide-contact CDR residues; also called clone 2
B2: scFv19 displayed on yeast (scFv, V domains shown)
VH: B1 VH with E32Y, S49T, M58V, Y101S, M103H, N104P
VL: B1 VL with L93F
notes: 25-D1.16 scFv (PDB 3CVH) changed at the nine randomised peptide-contact CDR residues; also called clone 19
B3: scFv12 displayed on yeast (scFv, V domains shown)
VH: B1 VH with E32D, M58I, Y101R, M103F, N104H
VL: B1 VL with A92G, L93Y
notes: 25-D1.16 scFv (PDB 3CVH) changed at the nine randomised peptide-contact CDR residues; also called clone 12

target: T1, single-chain mouse Trp2/H2-K^b (scpMHC), biotinylated (Mus musculus, H2-Kb, UniProt P01901;P01887, biotin on the biotinylation tag (BirA)); assay: flow cytometry on cells; yeast clones expressing TCRm scFv incubated with tenfold serially diluted target pMHC (monomer) for 1 h on ice, then streptavidin-AlexaFluor 647 for 15 min on ice; conditions: one partner purified
T1 construct: residues 180-188 of tyrosinase-related protein 2 (Trp2), mouse; linker, (G4S)3 or (G4S)4; beta2M; H2-K^b without the transmembrane domain; used as monomer, as streptavidin tetramer and on an SA chip; also called Trp2/H2-K^b tetramers; Trp2/H2-K^b monomer; source: Expi293, purified (Ni-NTA, Superdex 200)

Row | Binder | binding result
1 | B1 | binds
2 | B2 | binds
3 | B3 | binds
